Source: patent US6825165B1, “Betacellulin modification” (Takeda Chemical Industries, Ltd., priority 1998, dated 2004)
Values belong to the molecule of their own block, whether it stands above or below them.

Tests used:
[1] = test system: PLAP expression AR42J cells; assay: β cell differentiation promoting activity using human placenta alkaline phosphatase expression AR42J cells, Example 20; type: cell-based; settings: 5 days incubation, read-out: BTC activity EC50
Procedure: 100 μL of these suspensions were inoculated to 96 well plates and incubated for 5 days at 37° C. in carbon dioxide gas incubators (5% carbon dioxide gas, 95% air). After 5 days, the culture supernatant were treated for 30 minutes at 65° C., and 50 μL was then added to 96-well microplates containing 50 μL of 2×SEAP (2M diethanolamine, 1 mM MgCl2, 20 mM homoarginine). 10 μL of 20 mg/mL p-nitrophenylphosphoric acid (Sigma) was added, and a reaction was brought about for 16 hours at 37° C. The ratio between EGF activity and the BTC activity of all the muteins decreased to about 5% of that of the Met-80 residue betacellulin, and was about the same as that of the Met-76 residue betacellulin, with no apparent influence by the N terminal deletion.

AR42J cells [2] = assay: β cell differentiation promoting activity using AR42J cells (anti-insulin immunofluorescence), Example 9; type: cell-based; settings: 5 days incubation, anti-insulin antibody/FITC staining (FIG. 5)
Excerpt: Cells of the AR42J cell line derived from pancreatic cancer induced by chemical carcinogens (Christophe, Am. J. Physiol., 266: G963 (1994)) were suspended to a concentration of 10^5 cells/mL using Dulbecco's modified Eagle MEM medium containing 10% fetal calf serum and the Met-77 residue betacellulin prepared in Example 3, the Met-76 residue betacellulin prepared in Example 6, or the Met-80 residue betacellulin prepared in accordance with the method in Japanese Unexamined Patent Application (Kokai) H10-191989. 500 μL of these suspensions were inoculated to chamber slides and incubated for 5 days at 37° C. in carbon dioxide gas incubators (5% carbon dioxide gas, 95% air). After 5 days, the cells were washed once with PBS, fixed in 10% formaldehyde, and treated for 5 min with 0.1% Triton X-100. Block Ace (Snow Brand, Japan) was then added for 40 minutes of blocking at room temperature. Anti-insulin antibodies (by Advanced Immunochemicals) diluted with 10% Block Ace were added, and a reaction was performed for 40 minutes at room temperature. 0.1% Triton X-100 was added, the reaction solution was allowed to stand for 5 minutes at room temperature, and the cells were then washed three times with PBS. FITC (fluorescein isothiocyanate) labeled anti-mouse IgG antibodies (Cappel) diluted with 10% Block Ace were added, and a reaction was brought about for 40 minutes. 0.1% Triton X-100 was added, the reaction solution was allowed to stand for 5 minutes, the cells were then washed three times with PBS, and they were then observed under a fluorescent microscope.

[3] = test system: PLAP expression AR42J cells; assay: Selection of PLAP expression AR42J clones: alkaline phosphatase activity with and without betacellulin; type: cell-based; settings: 20 ng/mL Met-80 residue betacellulin, 4 days culture
Procedure: (§1) The differentiation promoting activity into β cells was also determined using AR42J cells transformed with the vector having alkaline phosphatase which had been ligated as a reporter downstream of the insulin promoter. Specifically, cells which have differentiated into β cells by addition of betacellulin produce alkaline phosphatase. As a result, by assaying the alkaline phosphatase activity, the differentiation promoting activity into β cells can be quantitatively assayed.
The pMCneopolyA plasmid (Stratagene) containing the neor gene of TnS and the PLAP expression plasmid pTB1898 were simultaneously introduced into AR42J cells using the transfection reagent TransIT™-LT1 (Mirus, PenVera Corporation). The plasmid introduced cells were then cultured for 2 days in DMEM supplemented with 10% fetal calf serum, and the culture was then continued in selection medium supplemented with 800 μg/mL G418 (geneticin, Gibco BRL). Clones were isolated by limiting dilution of cells growing with G418 resistance.
Cells of each clone were seeded to 24 well plates and cultured for 4 days with and without the addition of 20 ng/mL Met-80 residue betacellulin. The supernatant was collected and heat treated for 30 minutes at 65° C., and the alkaline phosphatase activity in the media was then assayed. Clones showing increased alkaline phosphatase activity with the addition of 80-residue betacellulin were selected.

[4] = target: T1, EGF receptor (A431 cells, high EGF receptor expression line) (Homo sapiens, UniProt P00533); assay: EGF binding assay using A431 cells (inhibition of 125I-EGF binding); settings: for IC50: A431 cells, 0.25 nM 125I-EGF, 90 minutes at 4° C.; for EGF/BTC relative to Met-BTC80: ratio between EGF activity and BTC activity, Met-BTC80 = 100%
T1 construct: human squamous epithelial carcinoma cells A431 (high EGF receptor expression line); endogenous in cells; host or cells: A431 human squamous epithelial carcinoma cells (intact, adherent)
Procedure: Cell growth promoting activity was assayed by means of the inhibiting activity of binding to ^125I-EGF using human squamous epithelial carcinoma cells A431 (high EGF receptor expression line).
Specifically, 100 μL of A431 cells suspended to a concentration of 10^5 cells/mL using Dulbecco's modified Eagle MEM (DMEM) medium supplemented with 10% fetal calf serum were inoculated to 96 well plates and cultured for 2 days at 37° C. in carbon dioxide gas incubators (5% carbon dioxide gas and 95% air). […] The mixtures were allowed to stand for 90 minutes at 4° C., and then washed 3 times with 200 μL of binding medium, and the cells were lysed in 200 μL of 0.1 N sodium hydroxide aqueous solution containing 1% SDS. The cell lysate was then transferred to scintillation vials, 1 mL of Scintillator A (Wako Pure Chemicals) was added, and the inhibiting activity of binding to ^125I-EGF was assayed with a scintillation counter.

[5] = target: T2, EGF receptor on human squamous epithelial carcinoma cells A431 (human, UniProt P00533 25-1210); assay: competition with 0.25 nM 125I-EGF on A431 cells
T2 construct: whole, on cells; also called A431 cells (high EGF receptor expression line)
Procedure: The mixtures were allowed to stand for 90 minutes at 4° C., and then washed 3 times with 200 μL of binding medium, and the cells were lysed in 200 μL of 0.1 N sodium hydroxide aqueous solution containing 1% SDS.

AR42J cells [6] = assay: β cell differentiation promoting activity using AR42J cells (anti-insulin immunofluorescence), Example 26; type: cell-based; settings: 5 days incubation
Procedure: Cells of the AR42J cell line derived from pancreatic cancer induced by chemical carcinogens (Christophe, Am. J. Physiol., 266: G963 (1994)) were suspended to a concentration of 10^5 cells/mL in Dulbecco's modified Eagle MEM medium containing 10% fetal calf serum and one of hBTC50, Mutein A, Mutein B, or the 80-residue betacellulin (hBTC80) prepared in accordance with the method in Japanese Unexamined Patent Application (Kokai) H10-191989. 500 μL of these suspensions was inoculated on chamber slides and incubated for 5 days at 37° C. in carbon dioxide gas incubators (5% carbon dioxide gas, 95% air). After 5 days, the cells were washed once with PBS, fixed in 10% formaldehyde, and treated for 5 min with 0.1% Triton X-100. Block Ace (Snow Brand, Japan) was then added for 40 minutes of blocking at room temperature. Anti-insulin antibodies (by Advanced Immunochemicals) diluted with 10% Block Ace were added, and reacted for 40 minutes at room temperature. 0.1% Triton X-100 was added, the reaction solution was allowed to stand for 5 minutes at room temperature, and the cells were then washed three times with PBS. FITC (fluorescein isothiocyanate) labeled anti-mouse IgG antibodies (Cappel) diluted with 10% Block Ace were added, and a reaction was brought about for 40 minutes. 0.1% Triton X-100 was added, the reaction solution was allowed to stand for 5 minutes, the cells were then washed three times with PBS, and they were then observed under a fluorescent microscope.

[7] = test system: PLAP expression AR42J cells; assay: β cell differentiation promoting activity using PLAP expression AR42J cells, Example 12; type: cell-based; settings: 5 days, varying concentrations (FIG. 6)
Procedure: as §1
The PLAP expression AR42J cells constructed in Example 11 were suspended to a concentration of 10^5 cells/mL using Dulbecco's modified Eagle MEM medium containing 10% fetal calf serum and varying concentrations of the Met-77 residue betacellulin prepared in Example 3, the Met-76 residue betacellulin prepared in Example 6, or the Met-80 residue betacellulin prepared in accordance with the method in Japanese Unexamined Patent Application (Kokai) H10-191989. 100 μL of these suspensions were inoculated to 96 well plates and incubated for 5 days at 37° C. in carbon dioxide gas incubators (5% carbon dioxide gas, 95% air). After 5 days, the supernatant was taken and treated for 30 minutes at 65° C., and 50 μL was added to 96-well microplates containing 50 μL of 2×SEAP (2M diethanolamine, 1 mM MgCl2, 20 mM homoarginine). […]

Molecule: BTC2-76: betacellulin mutein lacking one N terminal residue and four C terminal residues, SEQ ID NO: 37
- EC50 [1]: 0.12 nM

Molecule: BTC24-76: betacellulin mutein lacking 23 N terminal residues and four C terminal residues, SEQ ID NO: 38
- EC50 [1]: 0.03 nM

B1: Met-76 residue betacellulin (ligand)
chain: MDGNSTRSPETNGLLCGDPEENCAATTTQSKRKGHFSRCPKQYKHYCIKGRCRFVVAEQTPSCVCDEGYIGARCERV
notes: Lacks the four C-terminal residues (Asp Leu Phe Tyr); also called Met-BTC76; BTC1-76
- IC50 [5]: 95.1 nM

B2: Met-80 residue betacellulin (ligand)
chain: MDGNSTRSPETNGLLCGDPEENCAATTTQSKRKGHFSRCPKQYKHYCIKGRCRFVVAEQTPSCVCDEGYIGARCERVDLFY
notes: Prepared in E. coli by the method of Japanese Kokai H10-191989; The N-terminal Met is retained; also called Met-BTC80; hBTC80
- IC50 [5]: 1.2 nM
- Differentiation into insulin-producing β cells (stained cells under fluorescent microscope) (AR42J cells [6]; anti-insulin antibody/FITC staining): cells which had differentiated into insulin-producing β cells, were found
- Incidence of insulin-producing cells (AR42J cells [6]; comparison between the proteins): no differences in the incidence of insulin-producing cells

B4: Met-77 residue betacellulin: 77 residue betacellulin lacking three C terminal residues (SEQ ID NO: 1) with N terminal Met (protein)
chain: DGNSTRSPETNGLLCGDPEENCAATTTQSKRKGHFSRCPKQYKHYCIKGRCRFVVAEQTPSCVCDEGYIGARCERVD
modifications: N-terminal Met; Human
- Differentiation into insulin-producing β cells (stained cells under fluorescent microscope) (AR42J cells [2]): cells which had differentiated into insulin-producing β cells were found
- Promoting activity in inducing differentiation compared with Met-80 residue betacellulin [7]: virtually the same promoting activity in inducing differentiation as the Met-80 residue betacellulin

Further lines, with some results ahead:

- EC50 [1]: 0.07 nM
- IC50 [4]: 1.2 nM
- EGF/BTC relative to Met-BTC80 [4]: 100.0%
Molecule: Met-BTC80: 80 residue human betacellulin (SEQ ID NO: 35) with N terminal Met, prepared by the method of Kokai H10-191989 [reference compound]
- Differentiation into insulin-producing β cells (stained cells under fluorescent microscope) (AR42J cells [2]): cells which had differentiated into insulin-producing β cells were found
- PLAP activity (A 405), BTC added ([3]; clone AR1898-033, no BTC added: 0.034): 0.366 A 405
- PLAP activity (A 405), BTC added ([3]; clone AR1898-053, no BTC added: 0.008): 0.089 A 405
- PLAP activity (A 405), BTC added ([3]; clone AR1898-0192, no BTC added: 0.077): 0.752 A 405

- EC50 [1]: 0.3 nM
- IC50 [4]: 95.1 nM
- EGF/BTC relative to Met-BTC80 [4]: 5.4%
B3: Met-BTC76: 76 residue betacellulin lacking four C terminal residues (SEQ ID NO: 2) with N terminal Met (protein)
chain: DGNSTRSPETNGLLCGDPEENCAATTTQSKRKGHFSRCPKQYKHYCIKGRCRFVVAEQTPSCVCDEGYIGARCERV
modifications: N-terminal Met; Human
- Differentiation into insulin-producing β cells (stained cells under fluorescent microscope) (AR42J cells [2]): cells which had differentiated into insulin-producing β cells were found
- Promoting activity in inducing differentiation compared with Met-80 residue betacellulin [7]: virtually the same promoting activity in inducing differentiation as the Met-80 residue betacellulin
